Residue numbers refer to the chain shown, from its start. In names and notes the source's numbering stands. Entries after “also recorded” stand apart in the source; their conditions may differ.
B1: Arl8b^T34N: putative GDP-bound, dominant negative Arl8b mutant (Thr-to-Asn at 34; SEQ ID NO: 12), expressed from plasmid or adenovirus Adv-MG1023; tagged forms used (protein)
chain: MLALISRLLDWFRSLFWKEEMELTLVGLQYSGKNTFVNVIASGQFSEDMIPTVGFNMRKVTKGNVTIKIWDIGGQPRFRSMWERYCRGVNAIVYMIDAADREKIEASRNELHNLLDKPQLQGIPVLVLGNKRDLPNALDEKQLIEKMNLSAIQDREICCYSISCKEKDNIDITLQWLIQHSKSRRS
modifications: GFP/RFP tags in some forms; T34N substitution, GDP-binding
notes: tagged forms used
B2: Arl8b^Q75L: putative GTP-bound, dominant active Arl8b mutant (Gln-to-Leu at 75; SEQ ID NO: 13), expressed from plasmid or adenovirus Adv-MG1022; tagged forms used (protein)
chain: B1 chain with N34T, Q75L
modifications: GFP/RFP tags in some forms; Q75L substitution, GTP-binding
notes: tagged forms used

Key:
[1] = system: McA-RH7777 cells stably expressing human apoB-100 and human apoC-III (A18-C3); assay type: cell-based; settings: for effect on EPA-induced lipid degradation (CLD turnover): cells silenced, transfected or pre-treated, then EPA 0.4 mM, 6 h
Experimental: In certain non-limiting examples described herein, McA-RH7777 cells stably expressing human apoB-100 and human apoC-III (designated A18-C3) were used for the studies. […] In addition, these studies, particularly those concerning EPA- or DHA-triggered lysosomal motility and CLD degradation, were also performed using primary rat hepatocytes. Transfection of plasmids encoding proteins of interest, or transfection of siRNA specific for silencing target gene expression, was achieved using the FuGENE HP Extreme reagent (Roche). Representative gene silencing siRNA sequences, which are not meant to be limiting, are described in Table 1, and plasmids encoding proteins of interest are described in Table 2. The effectiveness of siRNA silencing was verified by Western-blotting of cellular content of the target proteins, and by intracellular localization assay using siRNA-Tracker (Mirus Bioscience). Twenty-four h after plasmid transfection, or 48 h after siRNA transfection, the cells were cultured in lipid-rich media containing fetal bovine serum (20%) and OA (0.4 mM). The lipid-laden cells were switched to fresh media supplemented with OA or EPA (0.4 mM). In live imaging experiments, LipidTOX Red (Life Technologies) and LysoTracker (Life Technologies) were added to media prior to EPA treatment, to visualize lipid droplets and lysosomes, respectively. For visualizing peroxisomes, Peroxisome-GFP (Invitrogen) was introduced to the cells 24 h prior to experiments. Quantification of cell lipid contents was achieved either by direct mass measurement (HPTLC) and counting the number of lipid droplets using Image J Lipid Droplet Counter Plug-In, or indirectly by Western blot analysis of cellular content of ADRP. Secretion of apoB and TG-rich lipoprotein was determined by Western blot analysis and metabolic labeling. Mitochondrial β-oxidation was measured using MitoSOX Red (Life Technologies) in situ. Autophagic flux was determined by using Cyto-ID assay (Enzo Life Science) and by monitoring GFP-LC3 clustering in situ. Interaction of Arl8b and subunits of the HOPS complex was determined in situ by the proximity ligation assay (Olink Biosience). Cytoplasmic pH was measured using the cytosolic pHrodo indicator reagent (Invitrogen). Live imaging of fluorescent-tagged proteins was performed 1 h post-EPA treatment. Cells were also collected at the time of EPA treatment for transmission EM and tomography, as well as immuno-EM. For movies, cells were imaged at 60 sec intervals every 5 min, for a total of 30 min.
The A18-C3 cells were cultured in DMEM (Invitrogen) supplemented with fetal bovine serum (20%), penicillin (50 U/mL), streptomycin (50 μg/mL, Invitrogen) and Geneticin/G418 (500 μg/mL, Gibco) at 37° C. in 5% CO2. Transfection was conducted when cells were 60-70% confluence. Appropriate plasmids were mixed with FuGENE HP extreme reagent (Roche Diagnostic), according to manufacturer's protocol, and incubated for 30 min. Twenty-four h after transfection, cells were switched to lipid-rich media containing OA (0.4 mM) for additional 16 h prior to imaging and biochemical analysis. In silencing experiments, appropriate siRNAs were transfected into cells using the X-treme GENE siRNA regent (Roche Diagnostic). Localization of siRNA in transfected cells in situ was carried out using the Cy5 Label IT-siRNA Tracker (Minis Bioscience #7213) according to manufacturer's protocol. Forty-eight h after transfection, cells were switched to lipid-rich media containing OA (0.4 mM) for additional 16 h prior to imaging and biochemical analysis.
Quantification of lipid droplets was carried out using confocal and differential interface contrast (DIC) microscopy. Lipid droplets were stained with LipidTOX Red (Invitrogen) before adding OA or EPA. All images were visualized using a 63× oil immersion objective lens. Z-series stacks were acquired with 0.2 μm steps. […]

[2] = system: primary neurons from parkinsonian mice; assay: Lysosome and cell morphology in Parkinson's disease primary neurons; assay type: cell-based, mouse
[3] = system: McA-RH7777 cells (A18-C3); assay: Autophagic flux (Cyto-ID assay); assay type: cell-based, rat
Experimental: In certain non-limiting examples described herein, McA-RH7777 cells stably expressing human apoB-100 and human apoC-III (designated A18-C3) were used for the studies. […] In addition, these studies, particularly those concerning EPA- or DHA-triggered lysosomal motility and CLD degradation, were also performed using primary rat hepatocytes. Transfection of plasmids encoding proteins of interest, or transfection of siRNA specific for silencing target gene expression, was achieved using the FuGENE HP Extreme reagent (Roche). […] Quantification of cell lipid contents was achieved either by direct mass measurement (HPTLC) and counting the number of lipid droplets using Image J Lipid Droplet Counter Plug-In, or indirectly by Western blot analysis of cellular content of ADRP. Secretion of apoB and TG-rich lipoprotein was determined by Western blot analysis and metabolic labeling. Mitochondrial β-oxidation was measured using MitoSOX Red (Life Technologies) in situ. Autophagic flux was determined by using Cyto-ID assay (Enzo Life Science) and by monitoring GFP-LC3 clustering in situ. Interaction of Arl8b and subunits of the HOPS complex was determined in situ by the proximity ligation assay (Olink Biosience). Cytoplasmic pH was measured using the cytosolic pHrodo indicator reagent (Invitrogen). […]

hepatic cells = assay: Prolonged oleate treatment (OA-induced steatosis) of hepatic cells; assay type: cell-based; settings: for steatosis (CLD accumulation): oleate 0.4 mM for up to 3 days
Excerpt: FIG. 36 illustrates that the LD content in cells cultured under lipid-rich conditions may be manipulated by expression of different forms of Arl8b. Images in the top row show position of lysosomes in cells cultured in a lipid-rich medium (i.e. supplemented with oleate) for up to 4 days. After 1-day treatment with oleate, lysosomes (stained with LysoTracker, green) were accumulated in the perinuclear regions of cells. However after 2-day oleate treatment, lysosomes were relocated towards the LDs at cell periphery. The relocation of lysosomes from the perinuclear region toward cell periphery indicates perturbed lysosomal motility under oleate-treatment conditions, which leads to prolonged association of lysosomes with LDs. Accumulation/higher interaction of lysosomes on LDs became more pronounced after 3- and 4-day treatment with oleate, with clear rings of lysosomes around LDs. Expression of the GDP-bound form of Arl8b, or Arl8b^T34N (or Arl8b “DN”, dominant negative), protects hepatocytes from accumulation of LDs upon long-term treatment with oleate. Note that even after 3 days, cells expressing Arl8b “DN” were healthy and accumulated low numbers of LDs (middle row). In contrast, expression of the GTP-bound form of Arl8b, or Arl8b^Q75L (or Arl8b “DA”, dominant active), exacerbated accumulation of LDs in cells (images in the bottom row). In fact, the cells could not tolerate long-term treatment and started to die after day 2. This situation may be similar to that in advanced levels of fatty liver, which causes hepatocyte apoptosis;
In these cells, lysosomes were continuously in contact with CLD, indicative of stalled lysosomal motility. This persistent lysosomal interaction with CLDs (i.e. “kiss” without “run”) clearly indicates the interfered process of microautophagy and lack of a mechanism in the cells, after prolonged OA treatment, that facilitates dissociation of lysosomes from CLDs, blocking the engulfment process. Thus, phenotypically, accumulation of CLD in cells cultured in lipid-rich media (e.g. supplementation with 0.4 mM OA) is invariably associated with a compromised lysosomal motility (i.e. kiss-and-run).

[4] = transfection of PD primary neurons

Row | Molecule | lipid content of lipid-laden cells without addition of EPA ([1]; OA-treatment conditions, transfected cells) | effect on the inhibition of microautolipophagy by Vps41 and GTP-bound Arl8b ([1]; cell culture studies) | effect on EPA-induced lipid degradation (CLD turnover) [1] | axonal swelling and degeneration in PD primary neurons [2, 4] | lysosomal phenotype (ring shape structure) in PD primary neurons [2, 4] | autophagic flux upon EPA treatment in transfected cells [3] | steatosis (CLD accumulation) (hepatic cells) | lysosomal phenotype of normal primary neurons ([2]; transfection of normal primary neurons) | cell survival under OA treatment (hepatic cells; medium with 0.4 mM OA, 2-day incubation)
1 | B1 | lipid content is lowered | can override the inhibitory effect of Vps41 and a GTP-bound form of Arl8b on microautolipophagy | accelerated | restored axonal swelling and degeneration; also recorded: restore axons | cleared the ring shape structure of lysosomes | does not induce autophagic flux | without indication of steatosis |  | 
2 | B2 |  |  | completely blocked |  |  |  | developed severe steatosis | converts normal neuronal lysosomes to PD primary neuron phenotype | most of the cells died

Source: US11298402B2, “Lysosomal degradation of lipids and proteins and method of use thereof” (University of Ottawa, priority 2015, dated 2022)
